{"source": "patent US6458934", "about": "(LG CHEMICAL, dated 2002)", "key": {"4-1BB antigen [1]": {"biological_target": "T1, 4-1BB antigen (human, UniProt Q07011 24-186, limits assumed)", "T1 construct": "also called human 4-1BB; h4-1BB", "experiment": "summary of the BIAcore results; ratio against Hz4B4-1"}, "4-1BB antigen [2]": {"biological_target": "T1, 4-1BB antigen", "experiment": "BIAcore SPR; ratio of Kd against mouse monoclonal antibody 4B4-1-1", "description": "(§1) The binding affinity of the mouse monoclonal antibody 4B4-1-1 and humanized antibody were determined and compared using the BIAcore™ assay (Pharmacia). Rabbit anti-mouse IgG (Sigma) and goat anti-human IgG (Fc-specific) were each diluted in 10 mM acetic acid buffer, and coupled to a Dextran CM-5 sensor chip (Pharmacia). 1 M ethanolamine was added to stop the reaction. Mouse monoclonal antibody 4B4-1-1 and humanized antibody Hz4B4-1 were each diluted to a concentration of 50 μg/ml in HEPES buffer (HBS). The coupled antibodies were bound at 100 resonance units (R.U.), and 25 μg/ml of 4-1BB antigen was applied at a flow rate of 10 μl/min. and bound for 5 minutes. HBS buffer (Pharmacia) was applied for 5 minutes at the same flow rate so that dissociation would occur. The association rate and dissociation rates and corresponding rate constants were determined by using BIA evaluation software. The results are shown in Table 2 as $kon$ and $koff$ values; K_d is also shown.\n(§2) The antigen binding affinity of the purified Hz4B4-2 humanized antibody was measured as in Example 5 using the BIAcore™ assay (Pharmacia)."}, "4-1BB antigen [3]": {"biological_target": "T1, 4-1BB antigen", "experiment": "summary of the BIAcore results; ratio against mouse monoclonal antibody 4B4-1-1"}, "4-1BB antigen [4]": {"biological_target": "T1, 4-1BB antigen", "experiment": "BIAcore SPR as in Example 5; antibody captured, 4-1BB antigen in flow", "description": "as §1, §2"}, "4-1BB antigen [5]": {"biological_target": "T1, 4-1BB antigen", "experiment": "BIAcore SPR; antibody captured by anti-mouse IgG on a CM-5 chip, 4-1BB antigen 25 µg/ml in flow", "description": "as §1"}, "4-1BB antigen [6]": {"biological_target": "T1, 4-1BB antigen", "experiment": "BIAcore SPR; antibody captured by anti-human IgG (Fc-specific) on a CM-5 chip, 4-1BB antigen 25 µg/ml in flow", "description": "as §1"}}, "data": [{"binder": "humanized antibody Hz4B4-2 (antibody, V domains shown, Whole antibody made in CHO-K1 cells (SB500 clone); The variable regions were put into the Hz4B4-1 expression vectors, so it has the same human kappa and human heavy chain constant regions; also called Hz4B4k-2 (light chain); Hz4B4h-2 (heavy chain)) VH: QVQLVQSGAEVKKPGASVKVSCKASGYTFSSYWMHWVRQAPGQRLEWMGEINPGNGHTNYSQKFQGRVTITVDKSASTAYMELSSLRSEDTAVYYCARSFTTARAFAYWGQGTLVTVSS VL: DIVMTQSPPTLSLSPGERVTLSCRASQSISDYLHWYQQKPGQSPRLLIKYASQSISGIPARFSGSGSGTDFTLTISSLEPEDFAVYYCQDGHSFPPTFGGGTKVEIK", "values": [{"measurement": "fold greater antigen binding affinity than Hz4B4-1", "setting": "4-1BB antigen [1]", "value": 5, "unit": "fold"}, {"measurement": "fold greater antigen binding affinity than mouse monoclonal antibody 4B4-1-1", "setting": "4-1BB antigen [2]", "value": 7.3, "unit": "fold"}, {"measurement": "fold higher antigen binding affinity than the original mouse monoclonal antibody", "setting": "4-1BB antigen [3]", "value": 7, "unit": "fold"}]}, {"binder": "mouse monoclonal antibody 4B4-1-1 (antibody, V domains shown, Whole mouse monoclonal antibody from a hybridoma; also called 4B4 MAb; 4B4 monoclonal antibody) VH: QVQLQQPGAELVKPGASVKLSCKASGYTFSSYWMHWVKQRPGQVLEWIGEINPGNGHTNYNEKFKSKATLTVDKSSSTAYMQLSSLTSEDSAVYYCARSFTTARAFAYWGQGTLVTVSA VL: DIVMTQSQATQSVTPGDRVSLSCRASQTISDYLHWYQQKSHESPRLLIKYASQSISGIPSRFSGSGSGSDFTLSINSVEPEDVGVYYCQDGHSFPPTFGGGTKLEIK", "values": [{"measurement": "Kd", "setting": "4-1BB antigen [4]", "value": 0.133, "unit": "nM"}, {"measurement": "kon", "setting": "4-1BB antigen [4]", "value": 11600, "unit": "M⁻¹ s⁻¹"}, {"measurement": "Kd", "setting": "4-1BB antigen [5]", "value": 0.133, "unit": "nM"}, {"measurement": "koff", "setting": "4-1BB antigen [5]", "value": "1.54e-06", "unit": "s⁻¹"}, {"measurement": "kon", "setting": "4-1BB antigen [5]", "value": 11600, "unit": "M⁻¹ s⁻¹"}]}, {"binder": "humanized antibody Hz4B4-1 (antibody, V domains shown, also called Hz4B4k-1 (light chain variable region); Hz4B4h-1 (heavy chain variable region)) VH: QVQLVQSGAEVVKPGASVKLSCKASGYTFSSYWMHWVKQAPGQVLEWIGEINPGNGHTNYNEKFKSKATLTVDKSASTAYMELSSLRSEDTAVYYCARSFTTARAFAYWGQGTLVTVSS VL: DIVMTQSPATQSVSPGERVTLSCRASQTISDYLHWYQQKPGQSPRLLIKYASQSISGIPSRFSGSGSGSDFTLTISSVEPEDFGVYYCQDGHSFPPTFGGGTKLEIK", "values": [{"measurement": "fold greater antigen binding affinity (Kd) than mouse antibody 4B4-1-1", "setting": "4-1BB antigen [2]", "value": "~1.5", "unit": "fold"}, {"measurement": "fold greater antigen binding affinity (Kd) than mouse monoclonal antibody 4B4-1-1", "setting": "4-1BB antigen [2]", "value": 1.5, "unit": "fold"}, {"measurement": "Kd", "setting": "4-1BB antigen [4]", "value": 0.0872, "unit": "nM"}, {"measurement": "koff", "setting": "4-1BB antigen [4]", "value": "4.36e-06", "unit": "s⁻¹"}, {"measurement": "kon", "setting": "4-1BB antigen [4]", "value": 50000, "unit": "M⁻¹ s⁻¹"}, {"measurement": "Kd", "setting": "4-1BB antigen [6]", "value": 0.0872, "unit": "nM"}, {"measurement": "koff", "setting": "4-1BB antigen [6]", "value": "4.36e-06", "unit": "s⁻¹"}, {"measurement": "kon", "setting": "4-1BB antigen [6]", "value": 50000, "unit": "M⁻¹ s⁻¹"}]}]}
